One data set concerns the target T1, TMPRSS2 (Homo sapiens, UniProt O15393).
T1 construct: TMPRSS2 (25 nM; recombinant protein produced in mammalian cells; #MBS1193731, MyBioSource, San Diego, CA); purchased MyBioSource, San Diego, CA #MBS1193731; host or cells: mammalian cells
The experiment in a line: In vitro proteolysis assay, TMPRSS2, fluorogenic substrate Boc-Gln-Ala-Arg-AMC. Type of data set: biochemical. On the procedure:
(§1) Figure 1 Effect of LF and the LF-derived peptides pLF1-pLF3 on the activity of serine proteases. Proteolytic activities of purified TMPRSS2 (A), plasmin (B), elastase (C), and trypsin (D) were measured with or without peptides pLF1, pLF2, pLF3, LF or the control peptide pCTR at 37°C in Tris-HCl buffer using the fluorogenic substrate Boc-Gln-Ala-Arg-AMC. The reaction was monitored using an ELISA reader for the indicated time intervals.
(§2) The proteolytic activities of plasmin (10 nM; from human plasma; #10602361001, Roche Diagnostics GmbH, Mannheim, Germany), trypsin (10 nM; from bovine pancreas; #T1005, Sigma-Aldrich, St. Louis, MO), elastase (20 nM; from porcine pancreas; #E1250, Sigma-Aldrich) and TMPRSS2 (25 nM; recombinant protein produced in mammalian cells; #MBS1193731, MyBioSource, San Diego, CA) were measured in a Nunc black fluorescence-based cell assay plate (Sigma-Aldrich) in Tris-HCl buffer (20 mM, pH 8.0, 150 mM NaCl). […] The reaction was measured using an ELISA plate reader (Synergy H1 BioTek microplate reader, Winooski, Vermont, U.S., or TECAN GENios, GMI, USA) under the excitation wavelength of 380 nm and the emission wavelength of 460 nm at the indicated time points.

The target in another data set is T2, plasmin (Homo sapiens, UniProt P00747).
T2 construct: purchased Roche Diagnostics GmbH, Mannheim, Germany #10602361001; host or cells: human plasma
As to the kind of experiment: In vitro proteolysis assay, plasmin. Type of data set: biochemical. The conditions noted are these: 37°C. On the procedure:
as §1
as §2, with “points. […]” for “points.”

In a further data set the test system is elastase. As to the kind of experiment: In vitro proteolysis assay, elastase. Type of data set: biochemical, porcine. The conditions noted are these: elastase 20 nM; 37°C, Tris-HCl buffer, Boc-Gln-Ala-Arg-AMC. Here is the method:
as §1, §2

The test system of data set [1] is SARS-CoV-2 infection, Vero cells. Type of data set: cell-based, SARS-CoV-2 (African green monkey cells). The conditions noted are these: 40 µg/mL, pre-incubation 40-60 min, mean of three independent experiments.
Data set [2] has as its system SARS-CoV-2 infection, Calu-3 cells. Format: cell-based, SARS-CoV-2 (human cells). The note with it: concentration not given, pre-incubation approx. 1 h, four independent experiments.
In data set [3] the test system is SARS-CoV-2. Type of data set: cell-based. The conditions noted are these: summary statement.
The next data set concerns COVID-19. The conditions noted are these: supplementary LF treatment; cited from earlier work. The text has this: (§3) The human glycoprotein LF is synthetized by exocrine glands and is present at high concentrations in secretory body fluids, particularly in milk, but also within inflammatory granules of neutrophils. […] This effect was mainly attributed to its immunomodulatory properties ([26]).

Data set [4] concerns SARS-CoV-2. The note with it: cited from earlier work.
Text: as §3

The test system of the next data set is plasminogen. The conditions noted are these: cited from earlier work. From the text:
Since structures of the catalytic domains of serine proteases display a high level of identity ([10]), we have tested the inhibitory effect of LF and three LF-derived synthetic peptides against other serine proteases, including TMPRSS2, elastase and trypsin, in addition to plasmin. […] In contrast, uPA-independent Plg conversion by the bacterial enzyme streptokinase was not affected by LF ([11]). […] Similarly, only pLF1 but neith ...

For the next data set, the system named is SARS-CoV-1. The note with it: cited from earlier work.
The conditions of data set [5]: cited from earlier work.
Data set [6] relates to SARS-CoV-2. The note with it: cited from earlier work. This is another data set of the same source.
For data set [7] the following is noted: cited from earlier work. The source holds these as a separate data set.

Entries after “also recorded” stand apart in the source; their conditions may differ.

T1 sequence (O15393 256-492 limits assumed): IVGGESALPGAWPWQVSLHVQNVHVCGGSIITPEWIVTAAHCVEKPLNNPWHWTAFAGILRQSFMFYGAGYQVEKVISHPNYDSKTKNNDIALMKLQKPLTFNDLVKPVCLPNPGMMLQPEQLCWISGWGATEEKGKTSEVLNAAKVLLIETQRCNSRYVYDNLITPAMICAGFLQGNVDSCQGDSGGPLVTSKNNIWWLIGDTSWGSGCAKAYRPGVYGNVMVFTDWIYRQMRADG
T1 sequence (O15393 106-255 limits assumed): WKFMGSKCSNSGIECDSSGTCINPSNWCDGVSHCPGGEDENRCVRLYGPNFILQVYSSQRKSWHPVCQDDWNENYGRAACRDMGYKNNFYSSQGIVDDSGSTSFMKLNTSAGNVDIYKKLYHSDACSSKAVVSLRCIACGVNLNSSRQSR
T2 sequence (P00747 581-810 limits assumed): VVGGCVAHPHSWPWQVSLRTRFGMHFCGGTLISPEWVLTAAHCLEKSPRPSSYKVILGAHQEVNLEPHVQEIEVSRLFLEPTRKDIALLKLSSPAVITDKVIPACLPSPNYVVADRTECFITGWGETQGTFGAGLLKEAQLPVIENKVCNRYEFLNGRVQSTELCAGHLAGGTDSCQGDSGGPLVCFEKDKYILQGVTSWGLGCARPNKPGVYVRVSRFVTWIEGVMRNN
T2 sequence (P00747 97-580 limits assumed): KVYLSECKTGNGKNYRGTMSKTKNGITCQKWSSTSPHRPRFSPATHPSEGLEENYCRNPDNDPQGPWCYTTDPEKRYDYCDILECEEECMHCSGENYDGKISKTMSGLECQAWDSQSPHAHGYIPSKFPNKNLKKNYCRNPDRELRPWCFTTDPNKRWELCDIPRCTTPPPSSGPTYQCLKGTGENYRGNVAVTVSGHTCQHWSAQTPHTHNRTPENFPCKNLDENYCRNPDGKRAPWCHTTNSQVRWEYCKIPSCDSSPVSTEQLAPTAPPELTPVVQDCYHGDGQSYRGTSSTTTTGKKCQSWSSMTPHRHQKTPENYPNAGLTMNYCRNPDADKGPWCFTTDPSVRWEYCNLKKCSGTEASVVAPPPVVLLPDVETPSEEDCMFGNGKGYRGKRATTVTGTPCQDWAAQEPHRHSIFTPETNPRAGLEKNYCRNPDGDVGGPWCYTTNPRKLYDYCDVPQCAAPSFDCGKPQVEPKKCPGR

B1: LF: human milk glycoprotein lactoferrin; recombinant human LF (L1294, Sigma-Aldrich) (protein, UniProt P02788 1-710, looked up)
chain: MKLVFLVLLFLGALGLCLAGRRRSVQWCAVSQPEATKCFQWQRNMRKVRGPPVSCIKRDSPIQCIQAIAENRADAVTLDGGFIYEAGLAPYKLRPVAAEVYGTERQPRTHYYAVAVVKKGGSFQLNELQGLKSCHTGLRRTAGWNVPIGTLRPFLNWTGPPEPIEAAVARFFSASCVPGADKGQFPNLCRLCAGTGENKCAFSSQEPYFSYSGAFKCLRDGAGDVAFIRESTVFEDLSDEAERDEYELLCPDNTRKPVDKFKDCHLARVPSHAVVARSVNGKEDAIWNLLRQAQEKFGKDKSPKFQLFGSPSGQKDLLFKDSAIGFSRVPPRIDSGLYLGSGYFTAIQNLRKSEEEVAARRARVVWCAVGEQELRKCNQWSGLSEGSVTCSSASTTEDCIALVLKGEADAMSLDGGYVYTAGKCGLVPVLAENYKSQQSSDPDPNCVDRPVEGYLAVAVVRRSDTSLTWNSVKGKKSCHTAVDRTAGWNIPMGLLFNQTGSCKFDEYFSQSCAPGSDPRSNLCALCIGDEQGENKCVPNSNERYYGYTGAFRCLAENAGDVAFVKDVTVLQNTDGNNNEAWAKDLKLADFALLCLDGKRKPVTEARSCHLAMAPNHAVVSRMDKVERLKQVLLHQQAKFGRNGSDCPDKFCLFQSETKNLLFNDNTECLARLHGKTTYEKYLGPQYVAGITNLKKCSTSPLLEACEFLRK
modifications: full-length
On to B1, for which the “inhibition of proteolytic activity of TMPRSS2 (in words)” value in the data set with TMPRSS2 (37°C, Tris-HCl buffer, Boc-Gln-Ala-Arg-AMC) is on record as “not able to block TMPRSS2 activity; also recorded: neither full-length LF nor pCTR inhibited; also recorded: did not block TMPRSS2 activity; also recorded: neither full-length LF nor other tested peptides derived from LF, nor the control peptide pCTR, significantly reduced”. The “dose dependence of inhibition of TMPRSS2 (in words)” value in the data set with TMPRSS2 (Figure 1A inset) is on record as “no dose-dependent inhibition; also recorded: not by LF”. Besides, in the data set with plasmin (Figure 1B inset: S-2251 in PBS), the “dose dependence of inhibition of active plasmin (in words)” value was “no dose-dependent inhibition; also recorded: not by LF”. Also, the “inhibition of proteolytic activity of plasmin (in words)” value with plasmin (plasmin 10 nM, Tris-HCl buffer, Boc-Gln-Ala-Arg-AMC) is “neither full-length LF nor a control peptide (pCTR), was able to inhibit; also recorded: neither full-length LF nor other tested peptides derived from LF, nor the control peptide pCTR, significantly reduced”. In addition, in the data set on elastase, the “inhibition of proteolytic activity of elastase (in words)” value is given as “neither full-length LF nor other tested peptides derived from LF, nor the control peptide pCTR, significantly reduced”. Besides, in data set [1], the “inhibition of SARS-CoV-2 infection, Vero cells, 40 µg/mL” value was “≈ 38%”. Also, the “inhibition of SARS-CoV-2 infection, Calu-3 cells” value in data set [2] is reported as 60-70%. Further, the “SARS-CoV-2 infection of permissive cells (in words)” value with SARS-CoV-2 [3] was “prevented SARS-CoV-2 infection”. For the same molecule, the “COVID-19 symptoms in clinical study (in words)” value in the data set with COVID-19 is “significantly reduced COVID-19 symptoms”. Besides, the “SARS-CoV-2 infection in vitro (in words)” value with SARS-CoV-2 [4] was “found to inhibit SARS-CoV-2 infection in vitro”. Also, in the data set on plasminogen, the “binding to plasminogen (in words)” value was “binds to Plg via its highly cationic N-terminal region; also recorded: bound to Plg via its highly cationic N-terminal region” and the “inhibition of plasminogen conversion to plasmin (in words)” value is “able to inhibit activation of Plg through hindering the action of urokinase-type plasminogen activator (uPA); also recorded: blocked Plg conversion to the active serine protease plasmin”. For the same molecule, the “uPA-independent plasminogen conversion by streptokinase (in words)” value in the data set on plasminogen (streptokinase as activator) was “not affected”. Moreover, the “SARS-CoV-1 infection (in words)” value in the data set with SARS-CoV-1 is listed as “inhibited the SARS-CoV-1 infection”. Also, in data set [5], the “binding to heparin and HSPGs (in words)” value was “LF binding to both heparin and HSPGs was observed”. For the same molecule, in the data set with SARS-CoV-2 [6], the “interferon responses (in words)” value is recorded as “enhancement of interferon responses”, the “iron homeostasis (in words)” value is on record as “maintenance of iron homeostasis” and the “viral replication (in words)” value is on record as “inhibition of viral replication”. Besides, the “clinical benefit, oral (in words)” value in data set [7] (in vivo, po) is recorded as “major clinical benefit in human, particularly neonatal medicine”. Besides, the “safety, oral (in words)” value in data set [7] (orally administered) is “considered safe and without adverse effects”.

Values taken from paper PMC9445877, “Blockade of TMPRSS2-mediated priming of SARS-CoV-2 by lactoferricin” (Frontiers in Immunology, 2022).
